Assay results as given in article PMC5286519, “Two strategies to engineer flexible loops for improved enzyme thermostability” (Scientific Reports, 2017).

B1: Escherichia coli transketolase (TK); wild-type E. coli TK (Escherichia coli K-12) (protein)
chain: MSSRKELANAIRALSMDAVQKAKSGHPGAPMGMADIAEVLWRDFLKHNPQNPSWADRDRFVLSNGHGSMLIYSLLHLTGYDLPMEELKNFRQLHSKTPGHPEVGYTAGVETTTGPLGQGIANAVGMAIAEKTLAAQFNRPGHDIVDHYTYAFMGDGCMMEGISHEVCSLAGTLKLGKLIAFYDDNGISIDGHVEGWFTDDTAMRFEAYGWHVIRDIDGHDAASIKRAVEEARAVTDKPSLLMCKTIIGFGSPNKAGTHDSHGAPLGDAEIALTREQLGWKYAPFEIPSEIYAQWDAKEAGQAKESAWNEKFAAYAKAYPQEAAEFTRRMKGEMPSDFDAKAKEFIAKLQANPAKIASRKASQNAIEAFGPLLPEFLGGSADLAPSNLTLWSGSKAINEDAAGNYIHYGVREFGMTAIANGISLHGGFLPYTSTFLMFVEYARNAVRMAALMKQRQVMVYTHDSIGLGEDGPTHQPVEQVASLRVTPNMSTWRPCDQVESAVAWKYGVERQDGPTALILSRQNLAQQERTEEQLANIARGGYVLKDCAGQPELIFIATGSEVELAVAAYEKLTAEGVKARVVSMPSTDAFDKQDAAYRESVLPKAVTARVAVEAGIADYWYKYVGLNGAIVGMTTFGESAPAELLFEEFGFTVDNVVAKAKELL
notes: full-length tktA product, N-terminal His6-tag (kept, no cleavage told), expressed in E. coli XL10-Gold from plasmid pQR791, Ni-NTA purified, dialysed into ThDP and MgCl2 (holo form), homodimer
B2: Escherichia coli transketolase (TK); wild-type E. coli TK (Escherichia coli K-12; I189H) (protein)
chain: MSSRKELANAIRALSMDAVQKAKSGHPGAPMGMADIAEVLWRDFLKHNPQNPSWADRDRFVLSNGHGSMLIYSLLHLTGYDLPMEELKNFRQLHSKTPGHPEVGYTAGVETTTGPLGQGIANAVGMAIAEKTLAAQFNRPGHDIVDHYTYAFMGDGCMMEGISHEVCSLAGTLKLGKLIAFYDDNGISHDGHVEGWFTDDTAMRFEAYGWHVIRDIDGHDAASIKRAVEEARAVTDKPSLLMCKTIIGFGSPNKAGTHDSHGAPLGDAEIALTREQLGWKYAPFEIPSEIYAQWDAKEAGQAKESAWNEKFAAYAKAYPQEAAEFTRRMKGEMPSDFDAKAKEFIAKLQANPAKIASRKASQNAIEAFGPLLPEFLGGSADLAPSNLTLWSGSKAINEDAAGNYIHYGVREFGMTAIANGISLHGGFLPYTSTFLMFVEYARNAVRMAALMKQRQVMVYTHDSIGLGEDGPTHQPVEQVASLRVTPNMSTWRPCDQVESAVAWKYGVERQDGPTALILSRQNLAQQERTEEQLANIARGGYVLKDCAGQPELIFIATGSEVELAVAAYEKLTAEGVKARVVSMPSTDAFDKQDAAYRESVLPKAVTARVAVEAGIADYWYKYVGLNGAIVGMTTFGESAPAELLFEEFGFTVDNVVAKAKELL
notes: as for B1
B3: Escherichia coli transketolase (TK); wild-type E. coli TK (Escherichia coli K-12; D143K) (protein)
chain: MSSRKELANAIRALSMDAVQKAKSGHPGAPMGMADIAEVLWRDFLKHNPQNPSWADRDRFVLSNGHGSMLIYSLLHLTGYDLPMEELKNFRQLHSKTPGHPEVGYTAGVETTTGPLGQGIANAVGMAIAEKTLAAQFNRPGHKIVDHYTYAFMGDGCMMEGISHEVCSLAGTLKLGKLIAFYDDNGISIDGHVEGWFTDDTAMRFEAYGWHVIRDIDGHDAASIKRAVEEARAVTDKPSLLMCKTIIGFGSPNKAGTHDSHGAPLGDAEIALTREQLGWKYAPFEIPSEIYAQWDAKEAGQAKESAWNEKFAAYAKAYPQEAAEFTRRMKGEMPSDFDAKAKEFIAKLQANPAKIASRKASQNAIEAFGPLLPEFLGGSADLAPSNLTLWSGSKAINEDAAGNYIHYGVREFGMTAIANGISLHGGFLPYTSTFLMFVEYARNAVRMAALMKQRQVMVYTHDSIGLGEDGPTHQPVEQVASLRVTPNMSTWRPCDQVESAVAWKYGVERQDGPTALILSRQNLAQQERTEEQLANIARGGYVLKDCAGQPELIFIATGSEVELAVAAYEKLTAEGVKARVVSMPSTDAFDKQDAAYRESVLPKAVTARVAVEAGIADYWYKYVGLNGAIVGMTTFGESAPAELLFEEFGFTVDNVVAKAKELL
notes: as for B1
B4: Escherichia coli transketolase (TK); wild-type E. coli TK (Escherichia coli K-12; A282P/H192P) (protein)
chain: MSSRKELANAIRALSMDAVQKAKSGHPGAPMGMADIAEVLWRDFLKHNPQNPSWADRDRFVLSNGHGSMLIYSLLHLTGYDLPMEELKNFRQLHSKTPGHPEVGYTAGVETTTGPLGQGIANAVGMAIAEKTLAAQFNRPGHDIVDHYTYAFMGDGCMMEGISHEVCSLAGTLKLGKLIAFYDDNGISIDGPVEGWFTDDTAMRFEAYGWHVIRDIDGHDAASIKRAVEEARAVTDKPSLLMCKTIIGFGSPNKAGTHDSHGAPLGDAEIALTREQLGWKYPPFEIPSEIYAQWDAKEAGQAKESAWNEKFAAYAKAYPQEAAEFTRRMKGEMPSDFDAKAKEFIAKLQANPAKIASRKASQNAIEAFGPLLPEFLGGSADLAPSNLTLWSGSKAINEDAAGNYIHYGVREFGMTAIANGISLHGGFLPYTSTFLMFVEYARNAVRMAALMKQRQVMVYTHDSIGLGEDGPTHQPVEQVASLRVTPNMSTWRPCDQVESAVAWKYGVERQDGPTALILSRQNLAQQERTEEQLANIARGGYVLKDCAGQPELIFIATGSEVELAVAAYEKLTAEGVKARVVSMPSTDAFDKQDAAYRESVLPKAVTARVAVEAGIADYWYKYVGLNGAIVGMTTFGESAPAELLFEEFGFTVDNVVAKAKELL
notes: as for B1
B5: Escherichia coli transketolase (TK); wild-type E. coli TK (Escherichia coli K-12; H192P) (protein)
chain: MSSRKELANAIRALSMDAVQKAKSGHPGAPMGMADIAEVLWRDFLKHNPQNPSWADRDRFVLSNGHGSMLIYSLLHLTGYDLPMEELKNFRQLHSKTPGHPEVGYTAGVETTTGPLGQGIANAVGMAIAEKTLAAQFNRPGHDIVDHYTYAFMGDGCMMEGISHEVCSLAGTLKLGKLIAFYDDNGISIDGPVEGWFTDDTAMRFEAYGWHVIRDIDGHDAASIKRAVEEARAVTDKPSLLMCKTIIGFGSPNKAGTHDSHGAPLGDAEIALTREQLGWKYAPFEIPSEIYAQWDAKEAGQAKESAWNEKFAAYAKAYPQEAAEFTRRMKGEMPSDFDAKAKEFIAKLQANPAKIASRKASQNAIEAFGPLLPEFLGGSADLAPSNLTLWSGSKAINEDAAGNYIHYGVREFGMTAIANGISLHGGFLPYTSTFLMFVEYARNAVRMAALMKQRQVMVYTHDSIGLGEDGPTHQPVEQVASLRVTPNMSTWRPCDQVESAVAWKYGVERQDGPTALILSRQNLAQQERTEEQLANIARGGYVLKDCAGQPELIFIATGSEVELAVAAYEKLTAEGVKARVVSMPSTDAFDKQDAAYRESVLPKAVTARVAVEAGIADYWYKYVGLNGAIVGMTTFGESAPAELLFEEFGFTVDNVVAKAKELL
notes: as for B1
B6: Escherichia coli transketolase (TK); wild-type E. coli TK (Escherichia coli K-12; A282P) (protein)
chain: MSSRKELANAIRALSMDAVQKAKSGHPGAPMGMADIAEVLWRDFLKHNPQNPSWADRDRFVLSNGHGSMLIYSLLHLTGYDLPMEELKNFRQLHSKTPGHPEVGYTAGVETTTGPLGQGIANAVGMAIAEKTLAAQFNRPGHDIVDHYTYAFMGDGCMMEGISHEVCSLAGTLKLGKLIAFYDDNGISIDGHVEGWFTDDTAMRFEAYGWHVIRDIDGHDAASIKRAVEEARAVTDKPSLLMCKTIIGFGSPNKAGTHDSHGAPLGDAEIALTREQLGWKYPPFEIPSEIYAQWDAKEAGQAKESAWNEKFAAYAKAYPQEAAEFTRRMKGEMPSDFDAKAKEFIAKLQANPAKIASRKASQNAIEAFGPLLPEFLGGSADLAPSNLTLWSGSKAINEDAAGNYIHYGVREFGMTAIANGISLHGGFLPYTSTFLMFVEYARNAVRMAALMKQRQVMVYTHDSIGLGEDGPTHQPVEQVASLRVTPNMSTWRPCDQVESAVAWKYGVERQDGPTALILSRQNLAQQERTEEQLANIARGGYVLKDCAGQPELIFIATGSEVELAVAAYEKLTAEGVKARVVSMPSTDAFDKQDAAYRESVLPKAVTARVAVEAGIADYWYKYVGLNGAIVGMTTFGESAPAELLFEEFGFTVDNVVAKAKELL
notes: as for B1

The proteins below were run on O=CCO (assay: HPLC of erythrulose formed, Michaelis-Menten fit). Settings: 50 mM Li-HPA (saturating co-substrate), 4-80 mM GA, 2.4 mM ThDP, 9 mM MgCl2, 50 mM Tris-HCl pH 7.0, 22 °C.
Type: biochemical, Escherichia coli
Source text: HPLC of erythrulose formed, Michaelis-Menten fit on Escherichia coli transketolase (TK); wild-type E. coli TK

Protein	Km	kcat [s⁻¹]	kcat/Km [M⁻¹ s⁻¹]
B1	20.5 (1.3) mM	62.3	3040
B2	18.0 (0.8) mM	–	–
B3	16.1 (1.2) mM	48.1	2990
B4	23.3 (1.4) mM	81.2	3480
B5	18.0 (1.2) mM	65.5	3640
B6	17.6 (2.1) mM	45.5	2580
